From patent publication US20250034212A1, “PEPTIDE” (PEPTIDREAM INC., priority 2021, published 2025) come the findings set out here.

In test [1] the target is T1, recombinant human TGF-β1 (R&D systems) (human, UniProt P01137 279-390). The test can be described thus: cell-based or functional assay.
Test [2] deals with T1, recombinant human TGF-β1 (R&D systems). Description: SPR, TGF-β1 immobilised, single cycle kinetics. The protocol: Subsequently, 50 μL of 60 mM EDC solution (Global Life Science Technologies Japan Co., Ltd.) and 50 μL of 650 mM NHS solution (Global Life Science Technologies Japan Co., Ltd.) were mixed. Next, the reaction was carried out at a flow rate of 10 μL/min for 420 seconds. Then, 150 μL of 0.2 μM TGF-β solution diluted in 10 mM acetic acid solution (pH 5.0) was prepared and reacted at a flow rate of 10 μL/min for 420 seconds to immobilize TGF-β on the CM3 sensor chip. TGF-β was human-derived TGF-β1 or β2 (recombinant human TGF-β1, 2) and was obtained from R&D systems. After immobilization, capping was performed by reacting with 1.0 M ethanolamine aqueous solution (Global Life Science Technologies Japan Co., Ltd.) at a flow rate of […] for 420 seconds.
A liquid prepared by dissolving each peptide at 10 mM in DMSO solution was diluted with running buffer to prepare a peptide-dissolved solution at a final concentration of 10 μM. Subsequently, 50 nM, 25 nM, 12.5 nM, 5 nM, and 2.5 nM peptide solutions were prepared. Using the above samples, the kinetics of each peptide against TGF-β was obtained by SPR measurement.
The kinetics evaluation model was Single Cycle Kinetics, and curve fitting was performed using Biacore T200 Evaluation Software Version 3.0 (Global Life Science Technologies Japan Co., Ltd.). The binding of various peptides to TGF-β was evaluated by performing least-squares curve fitting on the obtained sensorgram to calculate the KD value.
A general note: In SPR one partner is held on a chip, and binding of the other changes the refractive index at the surface.

Starred links: 1 amine or outer side, 2 acyl side, 3 side chain; linkers in the order of their positions; H or OH if unused. Positions of bridges follow the written chain, without caps; N, C: chain ends. Non-standard residues stand in square brackets, D forms with d. No end group written: not given here. KCOmeglumine = N6-(methyl-((2S,3R,4R,5R)-2,3,4,5,6-pentahydroxyhexyl)carbamoyl)-L-lysine, CN(C[C@H](O)[C@@H](O)[C@H](O)[C@H](O)CO)C(=O)NCCCC[C@H](N[*:1])C(=O)[*:2]; KCOpipzaa = N6-(4-(carboxymethyl)piperazine-1-carbonyl)-L-lysine, O=C(NCCCC[C@H](N[*:1])C(=O)[*:2])N1CCN(CC(=O)[*:3])CC1; Trp(7-aza) = N[C@@H](Cc1c[nH]c2ncccc12)C(=O)O; 1Nal = N[C@@H](Cc1cccc2ccccc12)C(=O)O; Gly(NCH2CH2Ph) = O=C(O)CNCCc1ccccc1; 4Pal = N[C@@H](Cc1ccncc1)C(=O)O

T1 sequence (P01137 279-390 limits assumed): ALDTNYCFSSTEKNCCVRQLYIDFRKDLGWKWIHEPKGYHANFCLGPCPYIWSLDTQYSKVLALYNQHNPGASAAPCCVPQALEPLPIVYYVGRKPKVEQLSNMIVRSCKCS

B1: TGFb1_017 (peptide)
peptide: {CH2CO}-F[Trp(7-aza)]VVNV[4Pal]D[KCOpipzaa][Gly(NCH2CH2Ph)]V[1Nal]YHVCG-NH2
modifications: thioether N-16
SMILES: CC(C)[C@@H]1NC(=O)CN(CCc2ccccc2)C(=O)[C@H](CCCCNC(=O)N2CCN(CC(=O)O)CC2)NC(=O)[C@H](CC(=O)O)NC(=O)[C@H](Cc2ccncc2)NC(=O)[C@H](C(C)C)NC(=O)[C@H](CC(N)=O)NC(=O)[C@H](C(C)C)NC(=O)[C@H](C(C)C)NC(=O)[C@H](Cc2c[nH]c3ncccc23)NC(=O)[C@H](Cc2ccccc2)NC(=O)CSC[C@@H](C(=O)NCC(N)=O)NC(=O)[C@H](C(C)C)NC(=O)[C@H](Cc2c[nH]cn2)NC(=O)[C@H](Cc2ccc(O)cc2)NC(=O)[C@H](Cc2cccc3ccccc23)NC1=O
notes: cyclic peptide; C-terminal G is a linker
One may read the Kd as the constant that tells how readily two partners part at equilibrium. Turning to B1, in test [1], the “SBE reporter % inhibition, peptide 0.075 nM” value worked out at 21.7%; the “SBE reporter % inhibition, peptide 0.75 nM” value stood at 60.2%; the “SBE reporter % inhibition, peptide 7.5 nM” value is 97.2%; the “SBE reporter % inhibition, peptide 75.0 nM” value was found to be 100%. Further, the Kd in test [2] was determined as 1.07 nM.

B2: TGFb1_009 (peptide)
peptide: {CH2CO}-F[1Nal]VVNV[4Pal]DD[Gly(NCH2CH2Ph)]V[1Nal][4Pal]HVCG
modifications: thioether N-16; not fully specified (C-terminus)
notes: as for B1
With B2, in test [1], the “SBE reporter % inhibition, peptide 0.075 nM” value stood at 2.7%; the “SBE reporter % inhibition, peptide 0.75 nM” value amounted to 53%; the “SBE reporter % inhibition, peptide 7.5 nM” value was 94.8%; the “SBE reporter % inhibition, peptide 75.0 nM” value amounted to 99.6%. Moreover, in test [2], the Kd worked out at 0.58 nM.

B3: TGFb1_007 (peptide)
peptide: {CH2CO}-F[1Nal]VKNV[4Pal]DD[Gly(NCH2CH2Ph)]V[1Nal]YHVCG
modifications: thioether N-16; not fully specified (C-terminus)
notes: as for B1
B3: in test [1], the “SBE reporter % inhibition, peptide 0.075 nM” value amounted to 0.1%; the “SBE reporter % inhibition, peptide 0.75 nM” value came out at 37.5%; the “SBE reporter % inhibition, peptide 7.5 nM” value was determined as 83.5%; the “SBE reporter % inhibition, peptide 75.0 nM” value worked out at 96.7%. Moreover, the dissociation constant Kd in test [2] turned out to be 2.7 nM.

B4: TGFb1_016 (peptide)
peptide: {CH2CO}-F[1Nal]VVNV[4Pal]DD[Gly(NCH2CH2Ph)]V[1Nal]YH[KCOmeglumine]CG-NH2
modifications: thioether N-16
SMILES: CC(C)[C@@H]1NC(=O)CN(CCc2ccccc2)C(=O)[C@H](CC(=O)O)NC(=O)[C@H](CC(=O)O)NC(=O)[C@H](Cc2ccncc2)NC(=O)[C@H](C(C)C)NC(=O)[C@H](CC(N)=O)NC(=O)[C@H](C(C)C)NC(=O)[C@H](C(C)C)NC(=O)[C@H](Cc2cccc3ccccc23)NC(=O)[C@H](Cc2ccccc2)NC(=O)CSC[C@@H](C(=O)NCC(N)=O)NC(=O)[C@H](CCCCNC(=O)N(C)C[C@H](O)[C@@H](O)[C@H](O)[C@H](O)CO)NC(=O)[C@H](Cc2c[nH]cn2)NC(=O)[C@H](Cc2ccc(O)cc2)NC(=O)[C@H](Cc2cccc3ccccc23)NC1=O
notes: as for B1
With B4, in test [1], the “SBE reporter % inhibition, peptide 0.075 nM” value was 6.1%; the “SBE reporter % inhibition, peptide 0.75 nM” value came out at 61%; the “SBE reporter % inhibition, peptide 7.5 nM” value came to 97.6%; the “SBE reporter % inhibition, peptide 75.0 nM” value is 100%. Also, the equilibrium dissociation constant (Kd) in test [2] was 0.97 nM.

B5: TGFb1_008 (peptide)
peptide: {CH2CO}-F[Trp(7-aza)]VVNV[4Pal]DD[Gly(NCH2CH2Ph)]V[1Nal]YHVCG
modifications: thioether N-16; not fully specified (C-terminus)
notes: as for B1
With B5, in test [1], the “SBE reporter % inhibition, peptide 0.075 nM” value turned out to be 3.8%; the “SBE reporter % inhibition, peptide 0.75 nM” value was 56.8%; the “SBE reporter % inhibition, peptide 7.5 nM” value worked out at 94.6%; the “SBE reporter % inhibition, peptide 75.0 nM” value amounted to 98.4%. Also, the Kd in test [2] was found to be 4.64 nM.

B6: TGFb1_005 (peptide)
peptide: {CH2CO}-F[Trp(7-aza)]VVNVYDD[Gly(NCH2CH2Ph)]V[1Nal]YHVCG
modifications: thioether N-16; not fully specified (C-terminus)
notes: as for B1
In the case of B6, in test [1], the “SBE reporter % inhibition, peptide 0.075 nM” value came to 0.4%; the “SBE reporter % inhibition, peptide 0.75 nM” value was found to be 47%; the “SBE reporter % inhibition, peptide 7.5 nM” value is 90.8%; the “SBE reporter % inhibition, peptide 75.0 nM” value is 98.9%. For the same molecule, in test [2], the Kd amounted to 1.15 nM.

B7: TGFb1_011 (peptide)
peptide: {CH2CO}-F[1Nal]VVNV[4Pal]D[KCOpipzaa][Gly(NCH2CH2Ph)]V[1Nal]YHVCG-NH2
modifications: thioether N-16
SMILES: CC(C)[C@@H]1NC(=O)CN(CCc2ccccc2)C(=O)[C@H](CCCCNC(=O)N2CCN(CC(=O)O)CC2)NC(=O)[C@H](CC(=O)O)NC(=O)[C@H](Cc2ccncc2)NC(=O)[C@H](C(C)C)NC(=O)[C@H](CC(N)=O)NC(=O)[C@H](C(C)C)NC(=O)[C@H](C(C)C)NC(=O)[C@H](Cc2cccc3ccccc23)NC(=O)[C@H](Cc2ccccc2)NC(=O)CSC[C@@H](C(=O)NCC(N)=O)NC(=O)[C@H](C(C)C)NC(=O)[C@H](Cc2c[nH]cn2)NC(=O)[C@H](Cc2ccc(O)cc2)NC(=O)[C@H](Cc2cccc3ccccc23)NC1=O
notes: as for B1
For the molecule B7, in test [1], the “SBE reporter % inhibition, peptide 0.075 nM” value stood at 6.1%; the “SBE reporter % inhibition, peptide 0.75 nM” value stood at 76.3%; the “SBE reporter % inhibition, peptide 7.5 nM” value was found to be 97.9%; the “SBE reporter % inhibition, peptide 75.0 nM” value stood at 100%. For the same molecule, in test [2], the Kd is 0.62 nM.

B8: TGFb1_003 (peptide)
peptide: {CH2CO}-FWVVNVYDD[Gly(NCH2CH2Ph)]V[1Nal]YHVCG
modifications: thioether N-16
notes: as for B1
As for B8, in test [1], the “SBE reporter % inhibition, peptide 0.075 nM” value was determined as 1.6%; the “SBE reporter % inhibition, peptide 0.75 nM” value amounted to 65.2%; the “SBE reporter % inhibition, peptide 7.5 nM” value was 97.3%; the “SBE reporter % inhibition, peptide 75.0 nM” value was 98.8%. Also, the Kd in test [2] was determined as 0.72 nM.

B9: TGFb1_010 (peptide)
peptide: {CH2CO}-F[1Nal]V[KCOpipzaa]NV[4Pal]DD[Gly(NCH2CH2Ph)]V[1Nal]YHVCG
modifications: thioether N-16; not fully specified (C-terminus)
notes: as for B1
For the molecule B9, in test [1], the “SBE reporter % inhibition, peptide 0.075 nM” value came to 2%; the “SBE reporter % inhibition, peptide 0.75 nM” value amounted to 63.8%; the “SBE reporter % inhibition, peptide 7.5 nM” value is 97.9%; the “SBE reporter % inhibition, peptide 75.0 nM” value came to 99.9%. Further, in test [2], the equilibrium dissociation constant (Kd) was 0.9 nM.

B10: TGFb1_015 (peptide)
peptide: {CH2CO}-F[1Nal]VVNV[4Pal]D[KCOmeglumine][Gly(NCH2CH2Ph)]V[1Nal]YHVCG-NH2
modifications: thioether N-16
SMILES: CC(C)[C@@H]1NC(=O)CN(CCc2ccccc2)C(=O)[C@H](CCCCNC(=O)N(C)C[C@H](O)[C@@H](O)[C@H](O)[C@H](O)CO)NC(=O)[C@H](CC(=O)O)NC(=O)[C@H](Cc2ccncc2)NC(=O)[C@H](C(C)C)NC(=O)[C@H](CC(N)=O)NC(=O)[C@H](C(C)C)NC(=O)[C@H](C(C)C)NC(=O)[C@H](Cc2cccc3ccccc23)NC(=O)[C@H](Cc2ccccc2)NC(=O)CSC[C@@H](C(=O)NCC(N)=O)NC(=O)[C@H](C(C)C)NC(=O)[C@H](Cc2c[nH]cn2)NC(=O)[C@H](Cc2ccc(O)cc2)NC(=O)[C@H](Cc2cccc3ccccc23)NC1=O
notes: as for B1
As for B10, in test [1], the “SBE reporter % inhibition, peptide 0.075 nM” value was found to be 0%; the “SBE reporter % inhibition, peptide 0.75 nM” value worked out at 76.9%; the “SBE reporter % inhibition, peptide 7.5 nM” value was 98.7%; the “SBE reporter % inhibition, peptide 75.0 nM” value is 98.4%. The dissociation constant (Kd) in test [2] came to 0.59 nM.

B11: TGFb1_014 (peptide)
peptide: {CH2CO}-F[1Nal]V[KCOmeglumine]NV[4Pal]DD[Gly(NCH2CH2Ph)]V[1Nal]YHVCG-NH2
modifications: thioether N-16
SMILES: CC(C)[C@@H]1NC(=O)CN(CCc2ccccc2)C(=O)[C@H](CC(=O)O)NC(=O)[C@H](CC(=O)O)NC(=O)[C@H](Cc2ccncc2)NC(=O)[C@H](C(C)C)NC(=O)[C@H](CC(N)=O)NC(=O)[C@H](CCCCNC(=O)N(C)C[C@H](O)[C@@H](O)[C@H](O)[C@H](O)CO)NC(=O)[C@H](C(C)C)NC(=O)[C@H](Cc2cccc3ccccc23)NC(=O)[C@H](Cc2ccccc2)NC(=O)CSC[C@@H](C(=O)NCC(N)=O)NC(=O)[C@H](C(C)C)NC(=O)[C@H](Cc2c[nH]cn2)NC(=O)[C@H](Cc2ccc(O)cc2)NC(=O)[C@H](Cc2cccc3ccccc23)NC1=O
notes: as for B1
B11: in test [1], the “SBE reporter % inhibition, peptide 0.075 nM” value was determined as 0%; the “SBE reporter % inhibition, peptide 0.75 nM” value was determined as 64.8%; the “SBE reporter % inhibition, peptide 7.5 nM” value turned out to be 97.2%; the “SBE reporter % inhibition, peptide 75.0 nM” value amounted to 98.8%. Moreover, the Kd in test [2] stood at 0.66 nM.
